Assay results as given in the supplement of paper PMC9170038.

System: MS2 coat protein
Experiment: apparent KD of MS2 coat protein; designed switch direction (-1 OFF switch, 1 ON switch): -1; higher = weaker reporter binding
How it was run: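 The apparent KD reported per design is the median over clusters of curve fits to normalised cluster fluorescence. The RNA switches were transcribed on Illumina chips by stalled E. coli RNA polymerase. SNAP-549-labelled MS2 coat protein was titrated from 0.7 or 1.5 nM, doubling up to 3 µM, in Tris-HCl pH 7.5 buffer containing KCl, MgCl2, BSA, DTT, tRNA and Tween-20, with no input, 200 uM small-molecule ligand, or an oligonucleotide input.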

[1] = input ligand: microRNA oligo, concentration not stated
[2] = Eterna round: R95, input ligand: microRNA oligo, concentration not stated
[3] = Eterna round: R95, input ligand: FMN 200 uM
[4] = Eterna round: R95, input ligand: none

| Sequence | apparent KD of MS2 coat protein (input ligand: FMN 200 uM) [nM] | apparent KD of MS2 coat protein (input ligand: none) [nM] | apparent KD of MS2 coat protein [1] [nM] | apparent KD of MS2 coat protein [2] [nM] | apparent KD of MS2 coat protein [3] [nM] | apparent KD of MS2 coat protein [4] [nM] |
| --- | --- | --- | --- | --- | --- | --- |
| GUCAUGUUAGGAUAUGAGCGGCGACUUAGAAUGUUUGCUACUUAGAAGGAACAUGAGGAUCACCCAUGUUCUAU [EX4 C.14] (Eterna round: R97, puzzle: Exclusion 4) | 20.2 | 17.2 | – | – | – | – |
| GUAUAACAUGUAGGAUAUGCGUGGCGAAGCUAUGCAGAAGGACAUGAGGAUCACCCAUGUUUUUGCGUCUGCGUACAGAUGCUA [JL ENG1 1.40] (Eterna round: R96, puzzle: Exclusion NG 1) | 107 | 21.5 | 15.2 | – | – | – |
| CCGGAAAUGAAGGAUAUAGGCGUCGAUAGACUCCUAGAAGGUCAUACAUGAGGAUCACCCAUGUGUCCUACCGG [Fiskers Ex 6 - 75] (puzzle: Exclusion 6) | – | – | – | 14.7 | – | – |
| CAUUAUGUUGAGGAUAUGCACCAGCUCACUGACGCAGAAGGCGACACAUGAGGAUCACCCAUGUCAGUUCGCGA [salish99_ex6_r004_428] (Eterna round: R97, puzzle: Exclusion 6) | 16.1 | 14.6 | – | – | – | – |
| CAGAGCAGACGGAGAUCCAACAUGAGGAUCACCCAUGUCUCAAAAGCUUUUUGCUUGUCUUAUCCUCCUCUGUUCAC [Esquitian 2] (Eterna round: R97, puzzle: Sensor, turn-off variant 1) | 18.3 | 17.4 | – | – | – | – |
| AAGAGUGCAGGAUAUACUUGUUAGGACGGUUGGAUGGUUUGACAUGAGGAUCACCCAUGUAGAAGGGCAGAGAG [JR_Exclu2_Sub053] (puzzle: Exclusion 2) | – | – | – | 70.5 | – | – |
| UGACUUCAUAUCACAUGAGGAUCACCCAUGUUAUUCAUCGCGUAGGAUAUCGAGGUUUAUUAUUACGAGAAGGACGUAUUGAUA [JR_ExcNG3_Sub074] (Eterna round: R96, puzzle: Exclusion NG 3) | 61.1 | 40.7 | 34.5 | – | – | – |
| UCAAGUAUGUAGGAUAUCGAUGUCGAAAGACAUCGAGAAGGACGUACAUGAGGAUCACCCAUGUAACUUGCAUG [Exclusion 6 - B - 10:f] (Eterna round: R96, puzzle: Exclusion 6) | 159 | 220 | 112 | – | – | – |
| AAUACAAGCUAUUGAUCCCACAUGAGGAUCACCCAUGUAGCUGGCGGUGACACCUCCUUUACGAUAGCUCGUCUUAU [Sensor-V1 #55] (Eterna round: R97, puzzle: Sensor, turn-off variant 1) | 604 | 1200 | – | – | – | – |
| CCUGCACAUGAGGAUCACCCAUGUUAGGAUAUCUCGCCGUCGGCUUGCCGACGGUAUUAGAGAAGGGACAAGGG [JL Tixe mod 3] (puzzle: Exclusion 1) | – | – | – | 39.5 | – | – |
| AGUACUAACACGAAGGUGUUAGUACAAUAAGCUUGUGAAACAUGAGGAUCACCCAUGUCCUCAUAAGCUCGUCUUAU [salish99_TOv2_r3_033] (puzzle: Sensor v3, turn-off variant 2) | – | – | – | 702 | 17.5 | 17.6 |
| AGAGAACAUGAGGAUCACCCAUGUAAGGAUAUGCGAAGAGUUCGGAGAGGUUGAGGAGGCAGAAGGUACAGGAG [JR_Exclu1_Sub042] (puzzle: Exclusion 1) | – | – | – | 31.4 | 30.5 | 33.1 |
| CCUCCGGUGCGAGGAUAUCUGGCGGCCGCCGGUGGAGAAGGCGUACAUGAGGAUCACCCAUGUCCAGCGUGCUCCUCGCUGGUU [0.15] (Eterna round: R96, puzzle: Exclusion NG 1) | 75 | 31 | 19.9 | – | – | – |
| GCUGCAAAUGUAGGAUAUCUGCACGAUUAGUGCAGAGAAGGACAUGAGGAUCACCCAUGUAGAUCAGCAGCAAUUAAUUUAAUU [ENG1/5-A1] (Eterna round: R96, puzzle: Exclusion NG 1) | 413 | 41.5 | 42.1 | – | – | – |
| AGCAUGUAAGGAUAUGCAAGUGGCACGGAUAGUACCAGAAAGCAGAAGGUACAUGAGGAUCACCCAUGUGCUCC [Anenen] (Eterna round: R96, puzzle: Exclusion 4) | 233 | 80.1 | 67.2 | – | – | – |
| UCUUAUUGAGGAUAUACAUUAAUUUACAUGAGGAUCACCCAUGUUCUUCAAUGUAUAUAUGUAGAAGGCAGAAGAU [Mat - Exclusion 5 - JL Mod - D29] (Eterna round: R97, puzzle: Exclusion 5) | 41.4 | 18.1 | – | – | – | – |
| AAAUAAUAGAUAAAAUAAAACAUGAGGAUCACCCAUGUGGGAUGCUGAGGGUGAUACAAGCUUUUUGCUCGUCUUAU (puzzle: Sensor v3, turn-off variant 1) | – | – | – | 57.7 | 210 | 182 |

| Sequence | apparent KD of MS2 coat protein (input ligand: FMN 200 uM) [nM] | apparent KD of MS2 coat protein (input ligand: none) [nM] | apparent KD of MS2 coat protein [1] [nM] | apparent KD of MS2 coat protein [2] [nM] | apparent KD of MS2 coat protein [3] [nM] | apparent KD of MS2 coat protein [4] [nM] |
| --- | --- | --- | --- | --- | --- | --- |
| ACAUGAGGAUCACCCAUGUCCGUCUGGUCUGUCUCGGCUGUCGAGGAUAUAGCUCGGUAUCCGCGCUAGAAGGCGGGAGUCGGG [Aenatbe mod 95] (Eterna round: R96, puzzle: Exclusion NG 3) | 36.1 | 61.9 | 60.9 | – | – | – |
| ACCUAAAAGCUAGGAUAUACAUGAGGAUCACCCAUGUACACAGGAAGACUAACCUGUGGACUCAUGUAGAAGGAGCAUGACAAA [Raengearle] (Eterna round: R96, puzzle: Exclusion NG 2) | 117 | 283 | 349 | – | – | – |
| GGAGGACGAGCAGGAUAUUUUCACAUGAGGAUCACCCAUGUGUAUUCAGGGUAAUCCUCCGCCGAAAAGAAGGGUUCGGAAGAA [JL ViennaUCT Socedi mod 2] (Eterna round: R96, puzzle: Exclusion NG 2) | 62.9 | 47.2 | 39 | – | – | – |
| AGCCUACAUGAGGAUCACCCAUGUCAGGAUAUCUCGCGGCGUGUCAAGUUCACACUGCAGAGAAGGGACUCGGG [Edsoriri] (puzzle: Exclusion 1) | – | – | – | 51.4 | – | – |
| CAUUAUGUUGAGGAUAUGCGCCGGAAAACUGACGCAGAAGGCGACACAUGAGGAUCACCCAUGUCAGUUUGCGA [salish99_ex6_r004_425] (Eterna round: R97, puzzle: Exclusion 6) | 70.1 | 28.3 | – | – | – | – |
| AGUACUAACACGAAAGUGUUAGUACUAUAAGCUUGUGUUACAUGAGGAUCACCCAUGUCCUCAUAAGCUCGUCUUGU [Mat - Sensor v3 - Turn-off var 2 - D104] (puzzle: Sensor v3, turn-off variant 2) | – | – | – | 48.7 | 46.4 | 54.4 |
| AAAAGAACAGGAUAUUCGUGAAAUAACAUGAGGAUCACCCAUGUUAACGCGGGUGAGAACGAAGAAGGGUUCUAAA [Ceries] (puzzle: Exclusion 5) | – | – | – | 42.1 | 121 | 61.4 |
| ACAUGUCAUUGAGGAUAUUGCACACAUGAGGAUCACCCAUGUAUACGGUUGCUCUUGCGUGAGUUCGAGAAGGCGAUGUACAUU [Ex NG2 #87] (Eterna round: R96, puzzle: Exclusion NG 2) | 356 | 159 | 168 | – | – | – |
| AUGUGCACGCUGCGGUCCUACAUGAGGAUCACCCAUGUGGUCUGGUGGCGUGGGUCACCGGACUUGGCUCGUCUUGG [salish99_S_TOV1_R5_057] (Eterna round: R97, puzzle: Sensor, turn-off variant 1) | 22.4 | 24.3 | – | – | – | – |
| AAGUCAUUAGGAUAUGAAUAGGGAGACAUGAGGAUCACCCAUGUUGAUAGAACGACAUGUUCAGAAGGAGUCGCUG [Eternabot (L1) Solution 45] (Eterna round: R97, puzzle: Exclusion 5) | 33.7 | 33 | – | – | – | – |
| AGUGUGUGGCAGGAUAUUCUAAUGAUUAGGACAGAAGAAGGGUCUACAUGAGGAUCACCCAUGUAAGCGGUUGA [Ex6 #38] (Eterna round: R97, puzzle: Exclusion 6) | 211 | 82.3 | – | – | – | – |
| AAUAACAGAGGAUAUACUAUUUUAUGUGUUUAUUGUUUUGAACAUGAGGAUCACCCAUGUAGAAGGCUGAAUAA [JMF 24] (puzzle: Exclusion 2) | – | – | – | 22.3 | – | – |
| UAUUAGCAAGCGAGGUCCCACAUGAGGAUCACCCAUGUGCUCGUCUUAUAAGGUACUGUGACGAUAGUCACGGUACC [Mat - Sensor, turn-off var - Eli Mod - D33] (Eterna round: R97, puzzle: Sensor, turn-off variant 1) | 14.6 | 14.6 | – | – | – | – |
| GCGCCAUCGUGAGAUGGCGUACCGACAUGAGGAUCACCCAUGUAGGAUAUCGAUUGCUUUGCAGUCGAGAAGGGCAUGAUAAGU [JL ENG3 3.77] (Eterna round: R96, puzzle: Exclusion NG 3) | 20.9 | 21.4 | 13.4 | – | – | – |
| AAGCGCGUAGGAUAUACAUGAGGAUCACCCAUGUGAGGAAGGAGUUGGAAGUGUGGAAGUAGAAGGACGGAGUG [JR_Exclu3_Sub078] (puzzle: Exclusion 3) | – | – | – | 44.3 | 35.4 | 41.7 |
| GAAAAGGUAGGAUAUACGAAAAAAAAGGGUAGAAAAAAAGCACAUGAGGAUCACCCAUGUAGAAGGACCAAAAG [salish99_ex2_r3_018] (Eterna round: R96, puzzle: Exclusion 2) | – | – | 29.6 | – | – | – |
| CACCGUUAGUGAGGAUAUCUUACAUGAGGAUCACCCAUGUAAUAAAUGAGAAUUUCGGAUGUAUGAGAGAAGGCACAAAUCGGC [Ostricism 53 - Jieux - Exclusion NG 2] (Eterna round: R96, puzzle: Exclusion NG 2) | 21.2 | 22.7 | 18.5 | – | – | – |
